Experimental data taken from the DeepSol protein solubility set.

Test: soluble on expression in E. coli; label from the status in PepcDB or PDB records

Sequence: MGSDKIHHHHHHMILGIDVGGTSVKFGLVTPEGEIQNATRFMTADWVNGIGFVESMKLEIGNFLKQYPIVKGVGIGWPGLVSLDRTKVILLPNIPSVVNVPIVEILRSEFPHIHFKIENDAKCAALGEYYFGENKRMQTFILLALGTGVGSGVMMNGKLFIGGRGNGTEVGHMLTTRGKSLENQVGINHLIAYTHEQLALDVAKKSSLHTIAELSPKVIADHAAQGDALALAVWADIGTIIGESLVNIVRVMDLNNILLGGGISGAFDYFVPNLKKAMLEHLPTYYTDDMYIGKATLENDAGLLGAAGLIMEAI
- soluble on expression in E. coli: not soluble

Sequence: MSLDTSRRRRLARRSIAASFRLFLTVAKGLGVLDYRIDGAEILHQERGCLVVANHPTLIDYVLLASVMPETDCLVKSALLKNPFLGGVVRATDYLINSEAETLLPRCQQRLAQGDTILIFPEGTRTKPGEKMTLQRGAANIAVRCASDLRIVTIGCSEHLLDKQSKWYDVPPDRPFFTVAVHGRVEINKFYDATSQEPALAARQLNRHLLLQLQQGCLPLSGINNASALSGNEGHHHHHH
- soluble on expression in E. coli: not soluble

Sequence: MPDRPQHPTASRQSSMVSWNHGAAGWLHCVQCGSATNPTACLDWLPPIHARSGPMYAEHDVVVLTRDVPDKSLIAGDVGAVVGRYAAGGYEVDFTAANGCTVAVVTLAGDDIRPRRRREIPHVREVA
- soluble on expression in E. coli: not soluble

Sequence: MGSDKIHHHHHHMTAQTHNDVAVCWNQNANQWTSDVRNGYDVYRDFFTLPAFLQFLPTMADLNVIDFGCGEGSNTRHFAQMGAKVVGIDISNGLIEHARQAERVDPVGITYKIVSYSSDTGFPASSFDAVVSTMALMDGPDLQGAMHEAYRLLRPGGFVAFSVLHPCFITPGWQWQKDENGQTTGLCTSRYFDKSGFTENWKFGNRPKDENVAPFAVPRFPRTIGDYINAVASVGFRISKIEEPQPTEEACKAIPQLRRWRDLGAFLLLVIAERPK
- soluble on expression in E. coli: not soluble

Sequence: MPVTRPAKINTYTRIIDASLALFNEEGERNISTNHIAAHLGISPGNLYYHFRNKDEIIVQLFKRYSEALLAYLNEAVLPSDVEDSINYMAGIYDVMWEYRFLFSDVNTLLARSAELLGEHNTFTQAKVSPLLVNLLTQLNGLNIIQADQTAMNDLAVNMWMVTKYWFDFDSSLRGRTKLTEDSKARGIRRTLSLLRPYLLPEHRKKYDRKIGNGNP
- soluble on expression in E. coli: soluble

Sequence: MSPAFRAMDVEPRAKGVLLEPFVHQVGGHSCVLRFNETTLCKPLVPREHQFYETLPAEMRKFTPQYKGVVSVRFEEDEDRNLCLIAYPLKGDHGIVDIVDNSDCEPKSKLLRWTTNKKHHVLETEKTPKDWVRQHRKEEKMKSHKLEEEFEWLKKSEVLYYTVEKKGNISSQLKHYNPWSMKCHQQQLQRMKENAKHRNQYKFILLENLTSRYEVPCVLDLKMGTRQHGDDASEEKAANQIRKCQQSTSAVIGVRVCGMQVYQAGSGQLMFMNKYHGRKLSVQGFKEALFQFFHNGRYLRRELLGPVLKKLTELKAVLERQESYRFYSSSLLVIYDGKERPEVVLDSDAEDLEDLSEESADESAGAYAYKPIGASSVDVRMIDFAHTTCRLYGEDTVVHEGQDAGYIFGLQSLIDIVTEISEESGE
- soluble on expression in E. coli: not soluble

Sequence: KMFFKVIDTLSDNYEKEMLLLEAEAKEQYYQELEKSSREVRKIKHDLKNMLLAICGKAKKQNEISEEIYKIIKELDESDKKIYTSNVVINTIINHKISQAKKLEIKTDVNIKVSKAIHIDYKDAGILLGNILDNAIEACEKIKKKERWIKIDMLHNKNTLFIEVCNSKGKELTNISKSSKSDAHNHGIGISSIKAITKKYDGYVEFVDKGEEFEVVVNLYGMSF
- soluble on expression in E. coli: not soluble

Sequence: MKIGIIGAGLGGLLSGAILSKEHSITIYEKLPFVGGRFTNIPYKGFQLTTGALHMIPHGNEGYLAQTLRRAGSNVKIVNSEPDGYFRINGKNHEYKDIFGLVSAKDKLKALKLAASLKLGKIDKNMPFGEFLEDIPLALDVGNSFSGWALSLNAYDTPMSEIIEISKLYHKFGGPGIPVGGCKGVIDSLVEIINKNGGKIYTSHAIEKIEVEENNVFLDSEQFDIVISNASPKLTEKMSNIKFIEKEPVPSKGIKINVASKLSLVDGASVIFTTDCERINGLNQPSNVDRSLAKEDYNLIMLHATQIKNNTKEEISLALNDIESLFGGKDYEVISIQSYGNGWPVNHASNGTDLNPIVKDNLLLVGDGVKGVGGIEVEGVAMSVIAVLNHIEKLKK
- soluble on expression in E. coli: soluble

Sequence: MAHHHHHHMFCFSRGLWMRHIGQDVPKRHTHFVLESRLMYEKSFRDCWLHSVCRAISQLDEPLSKTVVGTHQKMLQRKVTCFQYNQYGLFKTPYYRLANVDRYHAVQGVAGTREWVPYVNVSYWTMNKMVRGGNLLVHRVHYTGWGTDSHLKKGGWEHRWNKVLQRNVLQYSRI
- soluble on expression in E. coli: not soluble

Sequence: MGSDKIHHHHHHMTRPPDLLADVLDGIDALLVFSPSGSYYDRVDDVEGVDVVVVATENAVGAETFVELPLAFDDVREQIRFGIEGALSEGVVADGDELGCVAPFLSEEVDMVTRTRANAGTQSSVYELFASTRAEPGVIRDVFDVAIELGRKGQKGKPVGALFVVGDAGKVMTKSRPLSYNPFEKSHVHVGDPIVNVMLKEFSRLDGAFVISDSGKIVSSYRYLEPGAEGTDIPKGLGARHMAAGAITRDTNAVAIVLSESDGLVRAFRNGELVLELDPEDN
- soluble on expression in E. coli: not soluble

Sequence: MSEKTMRVQDYPLATRCPEHILTPTGKPLTDITLEKVLSGEVGPQDVRISRQTLEYQAQIAEQMQRHAVARNFRRAAELIAIPDERILAIYNALRPFRSSQAELLAIADELEHTWHATVNAAFVRESAEVYQQRHKLRKGS
- soluble on expression in E. coli: soluble

Sequence: MSLNAQLNDLGPIKAVIFDMDGLLLDTEGIYTEITQLIAERYGRTYDWTIKQNIIGRGAGDLARYVVQALDLPISAEEFLVMREPLMRERFPRAQAMPGAQELVRHLKEHRIPIAVGTSSSQMSFGEKTTRHGDWFALFDTIVTADDPEVTAAKPAPDIFLTAARRLGVAPAECLVFEDSPFGVTAARAAGMSVIAVPDPAMADSKFAHAHGIIRSLKGFQPAACGLPHLHWDEGHHHHHH
- soluble on expression in E. coli: soluble

Sequence: MAHHHHHHMMRIPPLVVCGPSGVGKGTLIKRLLGEFPSLFRFSISCTTRKKREKEMDGVDYYFVDKEDFEQKIKEEQFLEYDNYANNFYGTLKSEYDIAAGENKICLLEMNINGVKQLKESKHIEDGIYIFVKPPSIEILLKRLKNRNTENPEEIKKRMQELTREMDEADKVGFNYIIVNDDLARTYGELRKYLLGSYPQLGGA
- soluble on expression in E. coli: soluble

Sequence: MAVPGFTFDEALLTEIAASFQLRASNINALTALVQRLSGDFDRSTPQVMNMATGAGKTYVMAAFIEYMRRQGLRNVMIVTPGLVVQTKTVANFTQGSPKFIDGSPVPPRVVTPENYKSNPADQTAFTEQGASNVYVFNVQQLIGPKDMDGDTTSGSKAAVARGVHKFSEYAGVLYDELKNMDDLVVLADEHHLYSAKAKAFHAAIHDLEPAALVGLTASPGEKDETIFTYPLYKAIADKNVKQPVIVYRKDGYGELGEYQQLKDAKTLLETKAGHYAVKNQEEGTSPISPVMLVVCEDIAHATRIEETLVGPDLFGDPYAVLRVDSDSMNEEKAALLDAIDTPDSPVRAVVSVNKLKEGWDCRSIAVMVTLRAMDSDILTQQTLGRGLRLPYGKYAEVEAIDTLDIVAHESFQRLLSSEKVNKSFGFDKRKTSQPAPPQPVHPMDVTPPTPVPTPDLDPVPGGNTTAPTPVLPPADPQPVAPDLDKGTDTRPPLGLKELGGDGASPEDLYPEPTPLAVVELVEKFRDVSFLFPRTTYTAKNAAYPLEKLMQDEIIQVARQITDNPQAVLERLALAGDEAQGRVMAKRLTQGTIDAIALDEDAVKKQLVGAIITHRRVERSPENISQAKNRIAPLIYNNALATTWTVDTLHVASILLGKAIDASVRQFLANLEPDVTLVPLTMPTRTRFELGVGKTIEPRPGEFDKYINGQFYSGWTRNLYTAASFDSNSAEHKLACDLDVSPDVEWWTRLYMADGASIDYQVGKTYYPDFVVRDREGRTWIVEGKDAGGRTNEEVKAKRDAAELALNLMASNEDMGALKVGYIIAYEDTIKEAGSWSRLISMSGAVKSAN
- soluble on expression in E. coli: not soluble

Sequence: MGSDKIHHHHHHEDTTSSPEEDPLAPQNDDADLLLKPLIAKDPRTRGQRGPFAAMTGSYGRGGYGGSGGGAFGGFNGGYGQGGYGGGGDFGGGMGGGGYGGGGYGGGGDGGGGYGGYGGGGYGGMGGGPGGYGMGGYGGGGGGGGDFGGYGGGGMGGGGYGGGGDGGYGGGGFGGGGMGGYGGGMGGGGYGGGGMGGGGYGGGGDGGYGPSGGYGGGYGPGGGYGMGGGGGGGGCPNGECRGKK
- soluble on expression in E. coli: not soluble

Sequence: MKVFTEKIPNIPWEERPEGYTGPVWRYSKNPIIGRNPVPKGARVFNSAVVPYNGEFVGVFRIDHKNTRPFLHFGRSKDGINWEIEPEEIQWVDVNGEPFQPSYAYDPRVVKIEDTYYITFCTDDHGPTIGVGMTKDFKTFVRLPNAYVPFNRNGVLFPRKINGKYVMLNRPSDNGHTPFGDIFLSESPDMIHWGNHRFVLGRSSYNWWENLKIGAGPYPIETSEGWLLIYHGVTLTCNGYVYSFGAALLDLDDPSKVLYRSRYYLLTPEEEYETVGFVPNVVFPCAALCDADTGRVAIYYGAADTHVALAFGYIDEIVDFVKRNSM
- soluble on expression in E. coli: not soluble

Sequence: MQAQTVVHPSIKTKTTFAIVVDQKSYDEAKSEIDAYRTSIEKEGLGTYLLIDDWKRPEPIREQLVKLHENEKTPLEGCVFIGDIPIPMIRDAHHLSSAFKRSPKANWQKSSVPSDRYYDDFGLKFDYIKQDSLIPDYHYMTLRADSKQYISPDIYSARIRPLHLEGENRYQMLRDYLKKAVAEKAKQNAFDQLTMARGHGYNSEDPLAWSGEQIALREQLPQIFKSGNTVKFYDFNMRYPMKPLYLNEIQREGLDVMLFHHHGGPTMQYINGYENGSGINLSIENAKIFLRSKVPSYAKKHGREAAIKEYAKQYGVPESWCAEAFDEEKIKSDSIVNRNMDIYTEDIRLLTPNARFILFDACFNGSFHLDDNIVGSYIFNKGKTIATMGCTVNTIQDKWPDEFLGLLAAGMRIGQFTRFTCFLENHLIGDPTFHFTNNAGLDMDINQALVAQEGNVTFWKKQLNSPMADMQAMALRQLSMANYSGLVELLKKSYHESNYFVVRLEALRLLALNYPTEVADVLQTAMNDSYELIRRYAVEYVEKNCNPELLPAWIESYLLRGHENRHRFRIFSAINTFDHDMALNELKKQAADWSFYDSSYVNELLEYLPRQKKGLERDFALIDSPESTTKQIQSEISRFRNKPIAKAIEPLLNIIKNESQEEELRILAAETLGWYNLYYNKADIIKELNTFRTSNQKLMNEVTKTINRLKSQNR
- soluble on expression in E. coli: not soluble

Sequence: MSEFWLISAPGDKENLQALERMNNVTSKSNLSHNTKFAIPDFKVGTLDSLVGLSDELGKLDTFAESLIKRMAQSVVEVMEDSKGKAHETLLANGVDLTSFVTHFEWDMAKYPAKQPLVSVVDTLAKQLAQIETDLKSRTAAYSVLKANLENLEKRSTGNLFTRTLSDIVSKEDFVLDSEYLITLLVIVPKSSFAQWQKTYESLSDMVVPRSTKLIAEDNEGGLFTVTLFRKVIEDFKVKAKENKFIVREFYYDEKEIKREREEMTRLLSDKKQQYPTSCVALKKGSATYRDHKVKVAPLGNPARPAAGQTDRDRESEGEGEGPLLRWLKVNFSEAFIAWIHIKALRVFVESVLRYGLPVNFQAVLLQPHKKSATKRLREVLNSVFRHLDEVAAASILDASVEIPGLQLSNQDYFPYVYFHIDLSLLD
- soluble on expression in E. coli: soluble

Sequence: MLPDKGWLVEARRVPSPHYDCRPDDEKPSLLVVHNISLPPGEFGGPWIDALFTGTIDPDAHPFFAEIAHLRVSAHCLIRRDGEIVQYVPFDKRAWHAGVSNYQGRERCNDFSIGIELEGTDTLAYTDAQYQQLAAVTRTLIASYPAIADNMTGHCNITPDRKTDPGPAFDWPRFRALVALSSHKEMT
- soluble on expression in E. coli: not soluble

Sequence: MSEMNAVYNVKQYILNLIMQNKLEYGDQLPSNLSIARELNVKTDDVYEAIQALITEQVIKDNFEEGTSVKSLPPFFYPLNELISIGQMIKNAGFECGTEYLNFDEQPATMLDANLLSVEEGYPVTIIERLRTADGEPVVYCLDKIAKKELTCTEYQMSNGSILSAIKEQSNHNICYADTEIEAVNYEPRISEVLNASPHEGLILLKITHYNELDEPILYSLNYMKNSLVQFKITRKI
- soluble on expression in E. coli: not soluble
